Results: paper PMC3513267 (Journal of molecular biology, 2011)
Like-named read-outs stand apart in the source and are kept apart here.

Experiments:
PKA-C = PKA-C (Mus musculus, UniProt P05132); experiment: PKA-C catalyzed steady-state phosphorylation assay; assay type: biochemical; conditions: for catalytic efficiency kcat/Km: spectrophotometric, 340 nm, 299 K, 50 mM MOPS pH 7.0, 20 mM DTT, 10 mM MgCl2, 5.0 mM ATP, 1.0 mM PEP, 0.2 mM NADH, triplicate
NMR secondary structure = conditions: in the presence of DPC micelles
[1] = cited from earlier work

Row | Substance | catalytic efficiency kcat/Km (PKA-C; absence of membranes) | secondary structure (CSI and SSP scores) (NMR secondary structure) | R-state population ([1]; free in solution) | phosphorylation efficiency (in words) (PKA-C; PLN in DPC micelles, most helical construct studied) | catalytic efficiency kcat/Km (PKA-C; full-length PLN in DPC micelles) | R-state population ([1]; in DPC micelles)
1 | PLN1–20: peptide corresponding to the cytoplasmic domain Ia of phospholamban (MEKVQYLTRSAIRRASTIEM; UniProt P26678 1-20, looked up, fragment) | ~ 0.6 µM^−1s^−1 | the peptide forms a stable α-helix | 100% | – | – | –
2 | PLN: synthetic and recombinant versions of full-length PLN with no lipidation; membrane protein that inhibits SERCA | – | – | – | the phosphorylation efficiency is drastically lower | ~ 0.06 µM^−1s^−1 | ~ 4%
